Key:
[1] = target: OptoMB_(C450V), light-insensitive, His-tagged, purified (Avena sativa) (UniProt O49003); test: BLI
[2] = target: lit-stabilized OptoMB variant (group of the BLI measurements in the light); test: BLI

YFP-SH2, purified (fusion of yellow fluorescent protein and SH2), sequence (P00519 121-232): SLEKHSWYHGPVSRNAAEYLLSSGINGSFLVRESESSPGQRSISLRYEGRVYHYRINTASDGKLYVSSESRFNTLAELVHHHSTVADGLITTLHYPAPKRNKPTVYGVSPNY

YFP-SH2, purified (fusion of yellow fluorescent protein and SH2) (from UniProt P00519 121-232) (domain or fragment)
Kd [1]: 0.07 µM
Kd [2]: 11.2 µM
fold change of kon, dark against light [2]: < 46 fold
fold increase of koff, light against dark [2]: < 10 fold
